Data from the Human Domainome abundance scans (Beltran et al. 2025).
± gives the uncertainty stated by the source.

B1: Calcium-binding protein 2, residues 155 to 219; numbered along this chain, Q9NPB3 (parent)
chain: RELRDAFREFDTNGDGRISVGELRAALKALLGERLSQREVDEILQDVDLNGDGLVDFEEFVRMMS
B2: Chromodomain-helicase-DNA-binding protein 4, residues 365 to 417; numbered along this chain, Q14839 (parent)
chain: YETDHQDYCEVCQQGGEIILCDTCPRAYHMVCLDPDMEKAPEGKWSCPHCEKE

Variants of: B1
Assay: abundance fitness (aPCA) (normalised: wild type 0, dead -1); higher = more abundant; growth selection in yeast, the domain comes from the species named
Settings: Homo sapiens

Row | Variant | abundance fitness
1 | RELRDAFREFWTNGDGRISVGELRAALKALLGERLSQREVDEILQDVDLNGDGLVDFEEFVRMMS | -0.631 ± 0.095
2 | RELRDAFPEFDTNGDGRISVGELRAALKALLGERLSQREVDEILQDVDLNGDGLVDFEEFVRMMS | -0.573 ± 0.06
3 | RELRDAFREFDFNGDGRISVGELRAALKALLGERLSQREVDEILQDVDLNGDGLVDFEEFVRMMS | -0.493 ± 0.18
4 | RELRDAFREFDTNGDGRISVGELRAALKAELGERLSQREVDEILQDVDLNGDGLVDFEEFVRMMS | -0.091 ± 0.1
5 | RELRDAFREMDTNGDGRISVGELRAALKALLGERLSQREVDEILQDVDLNGDGLVDFEEFVRMMS | -0.426 ± 0.12
6 | RELRDAFREFDTNGDGRISVGELRAALKALLGERLSQREVDEILQDVDLNGDCLVDFEEFVRMMS | -0.121 ± 0.13
7 | RELRDAFREFDTNGDGRISVGELRAALKALLGERLSQREVDEILQDVDLNGDELVDFEEFVRMMS | -0.199 ± 0.086
8 | RELRDAFREFDTNGDGRISVGELRAALKALLGERLSQREVDEILSDVDLNGDGLVDFEEFVRMMS | -0.147 ± 0.096
9 | RELRDAFREFDTNGDGRISVGELRAALKALLGERLSQREVDEILQDVDLNGDGLGDFEEFVRMMS | -0.829 ± 0.044
10 | RELRDAFREFDTNGDGRISVGELRAALKALLGERLSQREVDEILQDVDLNADGLVDFEEFVRMMS | 0.062 ± 0.054
11 | RELRDAFREFDTNSDGRISVGELRAALKALLGERLSQREVDEILQDVDLNGDGLVDFEEFVRMMS | -0.198 ± 0.083
12 | RELRDAFREFDTNGDGRISVGELRAALKALVGERLSQREVDEILQDVDLNGDGLVDFEEFVRMMS | -0.048 ± 0.074
13 | RELRDAFREFDTNGDGRISVGELRRALKALLGERLSQREVDEILQDVDLNGDGLVDFEEFVRMMS | 0.051 ± 0.054
14 | RELRDAFREFDTNGDGRISVGELRHALKALLGERLSQREVDEILQDVDLNGDGLVDFEEFVRMMS | -0.012 ± 0.13
15 | RELRDAFREFDTNGDGRISVGELRAALKALLGERLSQREVDEIDQDVDLNGDGLVDFEEFVRMMS | -0.064 ± 0.14
16 | RELRDAPREFDTNGDGRISVGELRAALKALLGERLSQREVDEILQDVDLNGDGLVDFEEFVRMMS | -0.997 ± 0.11
17 | RELRDAFREFDTNGDGRISVGELRAALKALLGERLSQREVDEYLQDVDLNGDGLVDFEEFVRMMS | -0.345 ± 0.33
18 | RELRDAFREFDTNGDGRISVGELRAALKALLGERLSQREVDEGLQDVDLNGDGLVDFEEFVRMMS | 0.123 ± 0.069
19 | RELRDAFREFDTNGDGRISVGELRAALKALLGERLSQREVDEMLQDVDLNGDGLVDFEEFVRMMS | -0.017 ± 0.074
20 | RELRDAFREFDTNGDGRISVGELRAALKALLGERLSQREVDEILQDVDLNGDGLVDFEEFVFMMS | -0.218 ± 0.17
21 | RELRDAFREFDTNGDGRISVGELRAALKNLLGERLSQREVDEILQDVDLNGDGLVDFEEFVRMMS | -0.438 ± 0.28
22 | RELRDAFREFDTNGDGRISVGELRAALKALLGERLYQREVDEILQDVDLNGDGLVDFEEFVRMMS | -0.263 ± 0.18
23 | RELRDAFREFDTNGDGRISVGELRAALKALLGERLSQREVDEILQDVDLNGDGLVDFEEFKRMMS | -0.029 ± 0.1

Row | Variant | abundance fitness
24 | RELRDAFREFDTNGDGRISVGELRAALKALLGERLSQREVDEILQDVFLNGDGLVDFEEFVRMMS | -0.434 ± 0.27
25 | RGLRDAFREFDTNGDGRISVGELRAALKALLGERLSQREVDEILQDVDLNGDGLVDFEEFVRMMS | -0.15 ± 0.096
26 | RELRDAFREFDTNGDGRISVGWLRAALKALLGERLSQREVDEILQDVDLNGDGLVDFEEFVRMMS | -0.837 ± 0.11
27 | RELRDAFREFDTNGDGRISVGMLRAALKALLGERLSQREVDEILQDVDLNGDGLVDFEEFVRMMS | -0.535 ± 0.15
28 | RELRDAFREFDTNGDGRISVGELRAALKALLGERLSQREVDEILQDVDLNGDGLVDFEEFVRMGS | 0.008 ± 0.078
29 | RELRDAFREFDTNGDGRISVGELRAALKALLGERPSQREVDEILQDVDLNGDGLVDFEEFVRMMS | -0.02 ± 0.087
30 | RELRDAFREFDTNGDGRISVGELRAALKALLGERLSQREWDEILQDVDLNGDGLVDFEEFVRMMS | 0.041 ± 0.055
31 | RELRDAFREFDTNGDGRISVGELRAALKALLGERLSQRECDEILQDVDLNGDGLVDFEEFVRMMS | -0.086 ± 0.097
32 | RELRCAFREFDTNGDGRISVGELRAALKALLGERLSQREVDEILQDVDLNGDGLVDFEEFVRMMS | -0.178 ± 0.069
33 | RELRDAFREFDTNGDGRISVGELRAALKALLGERLSQREVDEILQDVDLNGDGLVDFEEFVRFMS | -0.081 ± 0.19
34 | RELRDAFREFDTNGDGRISVGELRAALKALLGERLSQREVDEILQDVDLNGDGLVDFEEFVRDMS | -0.323 ± 0.099
35 | RELRDAFREFDTNGDGRISGGELRAALKALLGERLSQREVDEILQDVDLNGDGLVDFEEFVRMMS | 0.004 ± 0.067
36 | REQRDAFREFDTNGDGRISVGELRAALKALLGERLSQREVDEILQDVDLNGDGLVDFEEFVRMMS | 0.018 ± 0.095
37 | RELRDAFREFDTNGDGRISVGELRAFLKALLGERLSQREVDEILQDVDLNGDGLVDFEEFVRMMS | -0.041 ± 0.29
38 | RELRDAFREFDTNGDGRISVGELRAYLKALLGERLSQREVDEILQDVDLNGDGLVDFEEFVRMMS | -0.17 ± 0.1
39 | RELRDAFREFDTNGDGRISVGELRAGLKALLGERLSQREVDEILQDVDLNGDGLVDFEEFVRMMS | 0.05 ± 0.081
40 | RELRDAFREFDTNGDGRISVGELRAALCALLGERLSQREVDEILQDVDLNGDGLVDFEEFVRMMS | -0.01 ± 0.13
41 | RELRDAFREFDTNGDGRISVGELRAALGALLGERLSQREVDEILQDVDLNGDGLVDFEEFVRMMS | -0.077 ± 0.064
42 | RELRDAFREFDTNGDGRISVGELRAALKALLGERLSQREVDEILQDLDLNGDGLVDFEEFVRMMS | -0.475 ± 0.049
43 | RELRDAFREFDTNGDIRISVGELRAALKALLGERLSQREVDEILQDVDLNGDGLVDFEEFVRMMS | -1.2 ± 0.22
44 | RELRDAFREFDTNGDDRISVGELRAALKALLGERLSQREVDEILQDVDLNGDGLVDFEEFVRMMS | 0.023 ± 0.12
45 | RELRDAFREFDTNGDERISVGELRAALKALLGERLSQREVDEILQDVDLNGDGLVDFEEFVRMMS | -0.1 ± 0.1

Variants of: B2
Assay: as above
Settings: Homo sapiens

Row | Variant | abundance fitness
46 | C50S | -0.222 ± 0.11
47 | C50E | -0.366 ± 0.15
48 | C50F | -0.567 ± 0.19
49 | C50W | -0.619 ± 0.12
50 | C50Q | -0.767 ± 0.24
51 | C50A | -0.271 ± 0.13
52 | C50I | -0.526 ± 0.28
53 | C50M | -0.819 ± 0.22
54 | C50D | -0.17 ± 0.16
55 | C50N | -0.313 ± 0.29
56 | C50T | -0.624 ± 0.2
57 | C50L | -0.517 ± 0.14
58 | C50K | -0.344 ± 0.17
59 | C50Y | -0.679 ± 0.15
60 | C50R | -0.555 ± 0.098
61 | K52S | 0.161 ± 0.14
62 | K52E | 0.136 ± 0.16
63 | K52I | -0.586 ± 0.21
64 | K52G | -0.204 ± 0.12
65 | K52L | -0.088 ± 0.11
66 | K52D | -0.39 ± 0.23
67 | K52N | -0.007 ± 0.21
68 | K52P | -0.072 ± 0.16
69 | K52W | -0.346 ± 0.14
70 | K52T | 0.06 ± 0.16
71 | K52A | -0.233 ± 0.12
72 | K52M | -0.376 ± 0.23

Row | Variant | abundance fitness
73 | K52V | -0.176 ± 0.099
74 | K52C | -0.105 ± 0.16
75 | K52H | 0.286 ± 0.23
76 | K52Q | -0.134 ± 0.18
77 | K52R | -0.106 ± 0.11
78 | H49E | -0.247 ± 0.12
79 | H49Y | -0.169 ± 0.18
80 | H49R | -0.044 ± 0.12
81 | H49I | -0.109 ± 0.17
82 | H49W | -0.175 ± 0.15
83 | H49A | -0.281 ± 0.11
84 | H49L | -0.213 ± 0.13
85 | H49K | -0.2 ± 0.18
86 | H49F | -0.068 ± 0.19
87 | H49N | -0.381 ± 0.23
88 | H49T | -0.16 ± 0.14
89 | H49V | -0.185 ± 0.099
90 | H49Q | -0.141 ± 0.2
91 | H49D | -0.241 ± 0.15
92 | H49P | -0.041 ± 0.12
93 | H49G | -0.086 ± 0.1
94 | H49M | -0.354 ± 0.16
95 | H49C | 0.348 ± 0.19
96 | H49S | -0.202 ± 0.11
97 | E51F | -0.392 ± 0.2
98 | E51C | -0.227 ± 0.13
